test: soluble on expression in E. coli; label from the status in PepcDB or PDB records

| Sequence | soluble on expression in E. coli |
| --- | --- |
| MTNQQDYTQDNDKLYRYLFQHRAVRGEWVRLNKTFTDTLNTHQYPKAVQDLLGEMMVATNLLTATLKFAGNITVQIQGDGPLRLALVNGNDQQQIRALARVDGNITENMSLHNMIGKGVLVITIAPKEGERYQGVISLDKPTITECLEDYFVRSEQLQTQLIIRTGEYEGKPVAAGMLLQIMPDGSGTPEDFEHLTTLAATVKDEELFGLPAEELLYRLYHEETVNLYPAQDVQFFCGCSAERSSSALLLISDEEIDEILAEHKGRIDMQCECCGTHYFFNKEAIEKLKSTRV | not soluble |
| MGSDKIHHHHHHMEFTDLQIFIHLSDTKNFTKTATQNHMSPSTLSRQIQRLEDELGKTLFIRDNRQVKLTEYGEKFLQFAKTEWQNWQQFKQQLKDESDELCGEIKLFCSVTASYSHLPHVLKEFRQRYPKVEIQLTTGDPALALELIQAQQVDLALAGKPNNLPSSVVFHKIDDISLSLIAPRVACLATQLLQEKPIDWQQMPFIFPVEGHARQRIEQWLREKQIKHPKIYATVAGHEGIVPMVGLGFGLAMLPDAVIDSSPMNNQISRLNLDKPIEPFELGICTQKRNLEQPLVRAFWAMLE | not soluble |
| MSLSDQSQIIAGFTLWHLSLPVTARRDHGIGSVAGAVEVVVLRLQADSGAVGYGEASPWVVFTGSVEATYAALDRYLRPLVLGRAVGDHAAIMEDARAAVAHCTEAKAALDTALYDLRARIAGVPVWALLGGRCRDRIPLSCSIADPDFDKDLALMQRLQDDDVRIIKLKTGFKDHAFDMMRLERLRADFPAFDIRVDYNQGLHHDVALARVRDVATFKPTFIEQPVKAHLRGLMARIRDAVDVPLLADESIFGPEDMAEHPEIADGVSIKIMKSGGLTRAQTVARMAAARGLSAYGGDMFEAGLAHLAGAHMIAATPEITLGCEFYQATYFLCDDILAAPFPVADGHVLVPDTPGLGVDVDEDALARFAVAREGHHHHHH | soluble |
| MAHHHHHHMHNGVKTFHRVGFVGSKWKEVKNRGIARFIEAFAADTATALNVTPQAVHIADYAVADDIVVDFYVTHPGTDSAEVIDGKLEQFDYQRVWDLYGIPSEVDEQQRVVPCVMKCSNASRRTSPSSTCRLRMPDTNSVSQVDSFCPRCQRRLSSKQEFLQPDESSGWHPQPMHSHTSSISDAVRTALMEDSYSAIRKPSSTPPLPHLAHRYAPHQKWKGKLRSSRARIKRVVYHSCASHR | not soluble |
| RLSTWARKQTAMSQTQDYECRSHNVDLPESRIPGSNTRLEWVEIIEPRTRERMYANLVTGECVWDPPAGVRIKRTSENQWWELFDPNTSRFYYYNASTQRTVWHRPQGCDIIPLAKLQTLKQNTESPRASAESSPGRGSSVSREGSTSSSLEPEPDTEKAQELPARAGRPAAFGTVKEDSGSSSPPGVFLEKDYEIYRDYSADGQLLHYRTSSLRWNSGAKERMLIKVADREPSFLAAQGNGYAPDGPPGVRSRRPSGSQHSPSLQTFAPEADGTIFFPERRPSPFLKRAELPGSSSPLLAQPRKPSGDSQPSSPRYGYEPPLYEEPPVEYQAPIYDEPPMDVQFEAGGGYQAGSPQRSPGRKPRPFLQPNKQGPPSPCQQLVLTKQKCPERFLSLEYSPAGKEYVRQLVYVEQAGSSPKLRAGPRHKYAPNPGGGSYSLQPSPCLLRDQRLGVKSGDYSTMEGPELRHSQPPTPLPQAQEDAMSWSSQQDTLSSTGYSPGTRKRKSRKPSLCQATSATPTEGPGDLLVEQPLAEEQPPCGTSLAPVKRAEGEAEGARGAAEPFLAQARLAWEAQQAHFHMKQRSSWDSQQDGSGYESDGALPLPMPGPVVRAFSEDEALAQQENRHWRRGTFEKLGFPQILLEKSVSVQTNLASPEPYLHPSQSEDLAACAQFESSRQSRSGVPSSSCVFPTFTLRKPSSETDIENWASKHFNKHTQGLFRRKVSIANMLAWSSESIKKPMIVTSDRHVKKEACELFKLIQMYMGDRRAKADPLHVALEVATKGWSVQGLRDELYIQLCRQTTENFRLESLARGWELMAICLAFFPPTPKFHSYLEGYIYRHMDPVNDTKGVAISTYAKYCYHKLQKAALTGAKKGLKKPNVEEIRHAKNAVFSPSMFGSALQEVMGMQRERYPERQLPWVQTRLSEEVLALNGDQTEGIFRVPGDIDEVNALKLQVDQWKVPTGLEDPHVPASLLKLWYRELEEPLIPHEFYEQCIAHYDSPEAAVAVVHALPRINRMVLCYLIRFLQVFVQPANVAVTKMDVSNLAMVMAPNCLRCQSDDPRVIFENTRKEMSFLRVLIQHLDTSFMEGVL | soluble |
| MAVDAVGRQKTIQEIIDSTTNKSTQRNTGELGKDEFLNLLITQLQYQDPLNPVDDKEFISQMAQFSALEQMQNLNKSFSATKAFGMIGKYITGTTSNGSDSGAGFVEGIVRSVKMENGKILLEVNGLDVPVDNVLSVSEESNYYYKYNSSNISQYTGIIGYEVSGSVYDPSTGDIVGVSGIVREIQKGIYEDYAVMDGVEVIISGIDTEFNSADPNFRKDYLTENVGQGVSLIITDAYGYGFKVPVTGVLKDFKIAPNGKIIGILDGVYVPVDSISNIKKPSANTGAADGTNENPQVEQSQTEESQVEEPQVGEPRDEESDSV | soluble |
| MAHHHHHHMWDPFRDIDRIFNRVLPLTGAGSFSSFSRGSWSPAMDLVEKPEGYKLLVDLPGMNREDIQVGIEDNRLCISGNRKSLLKDDEQHLAVFLERGYGRFERCMNLPSPIVEESVKARLRDSVLVVELKKNNSPASSAATSVTIQ | soluble |
| MVVIANAHNELIHDAVLDYYGKRLATCSSDKTIKIFEVEGETHKLIDTLTGHEGPVWRVDWAHPKFGTILASCSYDGKVLIWKEENGRWSQIAVHAVHSASVNSVQWAPHEYGPLLLVASSDGKVSVVEFKENGTTSPIIIDAHAIGVNSASWAPATIEEDGEHNGTKESRKFVTGGADNLVKIWKYNSDAQTYVLESTLEGHSDWVRDVAWSPTVLLRSYLASVSQDRTCIIWTQDNEQGPWKKTLLKEEKFPDVLWRASWSLSGNVLALSGGDNKVTLWKENLEGKWEPAGEVHQGGGGSGGGGATSKEFDGPCQNEIDLLFSECNDEIDNAKLIMKERRFTASYTFAKFSTGSMLLTKDIVGKSGVSIKRLPTELQRKFLFDDVYLDKEIEKVTIEARKSNPYPQISESSLLFKDALDYMEKTSSDYNLWKLSSILFDPVSYPYKTDNDQVKMALLKKERHCRLTSWIVSQIGPEIEEKIRNSSNEIEQIFLYLLLNDVVRASKLAIESKNGHLSVLISYLGSNDPRIRDLAELQLQKWSTGGCSIDKNISKIYKLLSGSPFEGLFSLKELESEFSWLCLLNLTLCYGQIDEYSLESLVQSHLDKFSLPYDDPIGVIFQLYAANENTEKLYKEVRQRTNALDVQFCWYLIQTLRFNGTRVFSKETSDEATFAFAAQLEFAQLHGHSLFVSCFLNDDKAAEDTIKRLVMREITLLRASTNDHILNRLKIPSQLIFNAQALKDRYEGNYLSE | soluble |
| MGSDKIHHHHHHYTEQPIDLVPTQPLPNASFDNFKLTCSNTKFADDLNQMTGFTKPASRELSVTFFPDLNGDVVAIDYRHYSASFKKGAKLLHKPIVWHINQATTKTTFKPNTWCLRCLWSTKPVDT | soluble |
| MGHHHHHHGGHMSLQRGCDGCKQNQSREPATIDGFMPKAQESIMGQQKQRNRRWVLASRPHGAPVPENFRLEEDDVATPGEGQVLLRTVYLSLDPYMRGRMSDEPSYSPPVDIGGVMVGGTVSRVVESNHPDYQSGDWVLGYSGWQDYDISSGDDLVKLGDHPQNPSWSLGVLGMPGFTAYMGLLDIGQPKEGETLVVAAATGPVGATVGQIGKLKGCRVVGVAGGAEKCRHATEVLGFDVCLDHHADDFAEQLAKACPKGIDIYYENVGGKVFDAVLPLLNTSARIPVCGLVSSYNATELPPGPDRLPLLMATVLKKRIRLQGFIIAQDYGHRIHEFQREMGQWVKEDKIHYREEITDGLENAPQTFIGLLKGKNFGKVVIRVAGDDEGGS | soluble |
| MAHHHHHHMEPHMTSLVLRRDLSLEVPKLLIGAVQPYQTLAGPALTTSFLHQPDLLPFQRTAFSHAAVAPLYFHTLLHTLAEFAETPRAVQYSAVKLRHAPKADFWDSVGTLNCFYYSAHAPYGAPVEASVLDQHPAMGAVELVRPGHRMESDVKLTLFNDSHQPIASMLMTGPNGAPRETDDDAVESSQGTSSTSPHARTAFPYVAPPTKETTSASDCLSAVMIGGTRVYGGLYGDLMPMESGGGFGQRACYRVEDAAAYSPSLDARSRVSGTEAAAGERTASSSASTVMPPWVLYDCVQRFFLRLHRSGIFGGDAAVAPTEGWRVSAHHVVQTEDAVFGVPVEVVCAVPRVYPSYRLPPWRHRLGLPAIPNGAPPCVCLRCETRQGGRLVSTGVYFFNRW | soluble |
| MIKLVAFDLDGTIGNTLPMCIQAFKKATQPYIGHELSDEEMVHTFGLNEEGMIGCVVDEPYRQQALNDFYVIYKELHQEMCPTPFEGIRELIALLKQKGIIVALITGKGINSCDITLKQFNMKDSFAKVITGNAERNIKSEALKELLHDYHLAANEIVYVGDALSDITECRKANVMCLSAAWSIPQNEVTALENSNPKNVFYSISSLFKYL | not soluble |
| MSLIGLDLDSAPDLIQSVPAPRLRRQVWLRTASGQRLAYATSWWEASHVDEYLQNRSLPIWASLARLRTELYRDVRGIYYGNSEALQLGFGVDGPFWGRHYLFWHHGQPLTLIYEVFSPYLTKYLGPMQLSSRNGKILEHHHHHH | not soluble |
| MGSDKIHHHHHHMGIGRGYAVWSPRSIYLTDFVYANFLEELIMQTLIIYSTIDGQTLAICQKMKTIAEQAGEQVALVTLEQADALSLADFDKVLIGASIRYGKHRPELYQFVNRHHAVLDTKINGFFTVNVVARKPLKNTPETNPYMQKFLQLSLWQPQLLEVFAGKIDYPKYGFFDRTMIRFIMWMTKGPTDITGTFEFTDWEKVDAFGNRFSQH | not soluble |
| RMEMVEIGGIQQALYIRGQNADNPIILWVHGGPGNSMMPFLHLYQYEWENDFTVVNWDQRNVGKTYFANDPAAVLQTMSAERVLQDVHEVTAYLKQEFNKEKIILIGHSWGTVLGTMAVQTYPEDYSAYIGIAQTVNMVDNERVGYEKTLEMVKAAGKQKDIKALEAIAPYPPAKYGPSYLAALMTVRTYQSKYGLSINMDLGNIISILATPYYSLRELKNTAIFNPNAIDNQGDVLRFLVEEADIRNYGVDYQVPVYYIMGENDYNSPYLPAKKFFDEIVAPDKQIFFIPDADHLPFLSKKAEFDCVLLE | not soluble |
| MASDEGKLFVGGLSFDTNEQSLEQVFSKYGQISEVVVVKDRETQRSRGFGFVTFENIDDAKDAMMAMNGKSVDGRQIRVDQAGKSSDNR | soluble |
| MGHHHHHHGGHMSLSNEVERVYPRLLDFVRKKYVSKNLLRVTLTGEDLIGFPEDQNGSHIKVFFPNQASGILQLPIREGDKVIWPEHKPVPRAYTVRQYRAQSNELDIDFVVHGEGTPGGGWALKAQTGSQLGLIGPGGPDPLIEPADWHIMAGDLSAVPAISAILEKMPSQAKGYVFLEVDDIEDKHDISHPEQMVIKWLVRDPNQAQPVLAMAIEQLPVPQGAESLSAFVAGENESVIACRKILRNEYRIARDKIYAIPYWKRGKNEEAYHEERHVVMDEEFEGGS | soluble |
| MSGLKPVKPEGVQSEFSVRVAKRSDDIRYSVMMFNGMDKVDTSKWTIDSGVTMEREDNQRVILSTQTVQEYGEGSEYGKAAREEARRKKYGRQSKKYRLDNQPWKMAFTEPEGRQRQMRGIREGGANEHADYWVFLKPNQSSEFKAYKVDEWHKFLPAITHKTLDIDQAEEQFSQRYKVMNQFALKAAIQNQLSATDESEMTEQQKRLLKIKDEASSDDSDGDDEGEGGDDGKKAKNKKKKKKNAKPAKEKRQRVEDKDDVAKYESSDGEDEGREYDYISDSGTDSDREQVPSDEKIEKQLVGVAEEEGARESDSSESEDDLTKKLMKPYGDKKKGNDIEERDSSGTDSDVSDTEKLDSVVFMKANKDGEGGSGGTGKKRPPTEDSDLKMDNLGPSDAKKAKPAVKFEEGLNEETVRRYLRRKPHTTKELLHKMNGKCGNMSKSEMVTQLASILKAIEPNQSRQLKGKKEVLFFSLVNTIA | not soluble |
